Laboratory results as given in US20220411520A1 (GMAX BIOPHARM, published 2022).
Each block holds one binder with its values, some of them ahead of it.

How the values were obtained:
[1] = target: T1, human gastric inhibitory polypeptide receptor (hGIPR) (human, UniProt P48546 22-466); experiment: FACS on CHO-DHFR-hGIPR cells
T1 construct: Stably expressed on CHO-DHFR- cells from a pTM15 plasmid; also called human GIPR; human GIP receptor
T1 sequence: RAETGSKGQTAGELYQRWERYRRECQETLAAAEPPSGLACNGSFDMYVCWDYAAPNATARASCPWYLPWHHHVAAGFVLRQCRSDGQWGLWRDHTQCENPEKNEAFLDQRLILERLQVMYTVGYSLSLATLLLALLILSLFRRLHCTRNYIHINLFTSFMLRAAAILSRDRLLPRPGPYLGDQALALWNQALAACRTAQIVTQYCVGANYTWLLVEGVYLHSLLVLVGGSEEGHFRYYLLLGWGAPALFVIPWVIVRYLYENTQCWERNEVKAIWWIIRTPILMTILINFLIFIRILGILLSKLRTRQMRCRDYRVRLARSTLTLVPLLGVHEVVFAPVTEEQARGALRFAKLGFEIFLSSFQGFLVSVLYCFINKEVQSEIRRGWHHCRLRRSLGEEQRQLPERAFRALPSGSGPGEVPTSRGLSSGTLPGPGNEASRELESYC
Procedure: PBS containing 10 mM EDTA was used to detach the CHO-DHFR-hGIPR cells and 10⁵ cells/tube was distributed into 1.5 mL EP tubes, and the supernatant was removed after centrifugation. The negative control sample was resuspended with a loading buffer (PBS, 2% FBS). For the positive control, 200 μL GIPR antibody solution of specific concentration was added to the cells and incubated at room temperature; after incubation, the cells were then centrifuged at 1500 rpm to remove the supernatant, washed with a FACS loading buffer and centrifuged again. The cells were resuspended with addition (200 μL/well) of a FITC labeled goat anti-mouse fluorescent antibody or PE labeled goat anti-human fluorescent antibody at 1:50 dilution and incubated at room temperature for 30 min in the dark. The supernatant was removed after centrifugation, and cells were washed with FACS loading buffer, centrifuged again and resuspended with the loading buffer for FACS analysis. The recombinant anti-hGIPR functional antibody specifically binds to GIPR-expressing CHO-DHFR-GIPR cells.

[2] = target: human GLP-1 receptor (hGLP-1R) (human, UniProt P43220 24-463); experiment: cell-based or functional assay
[3] = target: T2, monkey GIP receptor (maGIPR) (monkey, UniProt P48546 22-466 (human entry), limits assumed); experiment: cell-based or functional assay
T2 chain: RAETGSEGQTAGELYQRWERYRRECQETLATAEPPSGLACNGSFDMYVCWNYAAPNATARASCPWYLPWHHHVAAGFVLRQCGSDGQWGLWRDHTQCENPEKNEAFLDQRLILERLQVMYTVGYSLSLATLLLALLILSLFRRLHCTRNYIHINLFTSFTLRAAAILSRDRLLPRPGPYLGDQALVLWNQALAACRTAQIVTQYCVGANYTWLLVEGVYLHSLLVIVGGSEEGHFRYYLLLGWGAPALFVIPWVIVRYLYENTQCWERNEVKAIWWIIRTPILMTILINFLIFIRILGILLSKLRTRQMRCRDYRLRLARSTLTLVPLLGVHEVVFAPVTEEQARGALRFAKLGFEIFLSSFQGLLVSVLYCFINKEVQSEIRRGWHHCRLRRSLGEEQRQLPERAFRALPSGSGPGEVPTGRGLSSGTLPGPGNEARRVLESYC

[4] = target: T1, human gastric inhibitory polypeptide …; experiment: cell-based or functional assay
[5] = target: T3, human gastric inhibitory polypeptide receptor (hGIPR) (human) (UniProt P48546); experiment: cell-based or functional assay
T3 sequence: T1 sequence

binding result [1]: binds
B1: hGIPR antibody L10H8 (antibody, V domains shown)
VH: QVQLQQSGAEVKKPGSSVKVSCKASGGTFSSYAISWVRQAPGQGLEWMGGIIPTFGTANYAQKFQGRVTITADESTSTAYMELSSLRSEDTAVYYCAQGPIVGAPTDYWGKGTLVTVSS
VL: SYVLTQPPSASGTPGQRVAISCSGSNSNIGSNTVHWYQQLPGAAPKLLIYSNNQRPSGVPDRFSGSNSGTSASLAISRLQSEDEADYYCAAWDDSLNGVVFGGGTKVTVL
notes: Recombinantly expressed whole antibody; also called recombinant anti-hGIPR functional antibody

reporter gene assay (CRE-Luciferase) in CHO-DHFR- cells co-expressing hGLP-1R: activation (EC50) [2]: 0.0174 nM | direct cAMP assay: inhibition of GIP-activated monkey GIPR signaling (IC50) [3]: 4.3 nM | direct cAMP assay: inhibition of GIP-activated hGIPR signaling in CHO-DHFR cells stably expressing human GIPR (IC50) [4]: 7.03 nM
B2: GIPR antibody/GLP-1 fusion protein GLP-1-Linker-V1W5 (other)
light: HGEGTFTSDVSSYLEGQAAKEFIAWLVKGGGGGSGGGGSGGGGSDIVLTQSPASLAVSPGQRATITCRASQSVNTAVYSYIHWYQQKPGQPPKLLIKYASNLESGVPARFSGSGSGTDFTLTINPVEANDAANYYCQHSFDFPYTFGGGTKVEIKRTVAAPSVFIFPPSDEQLKSGTASVVCLLNNFYPREAKVQWKVDNALQSGNSQESVTEQDSKDSTYSLSSTLTLSKADYEKHKVYACEVTHQGLSSPVTKSFNRGEC
heavy: QVQLQESGPGLVKPSQTLSLTCTVSGYSITSDYAWNWIRQPPGKGVEWMGYISYRGIATYKPSLKSRITISRDTSKNQFSLKLSSVTAADTAVYYCVRGEYGPGNFDFWGQGTTVTVSSASTKGPSVFPLAPCSRSTSESTAALGCLVKDYFPEPVTVSWNSGALTSGVHTFPAVLQSSGLYSLSSVVTVPSSSLGTKTYTCNVDHKPSNTKVDKRVESKYGPPCPPCPAPEAAGGPSVFLFPPKPKDTLYITREPEVTCVVVDVSQEDPEVQFNWYVDGVEVHNAKTKPREEQFNSTYRVVSVLTVLHQDWLNGKEYKCKVSNKGLPSSIEKTISKAKGQPREPQVYTLPPSQEEMTKNQVSLTCLVKGFYPSDIAVEWESNGQPENNYKTTPPVLDSDGSFFLYSRLTVDKSRWQEGNVFSCSVMHEALHNHYTQKSLSLSLG

reporter gene assay (CRE-Luciferase) in CHO-DHFR- cells co-expressing hGLP1R: activation (EC50) [2]: 0.04 nM | direct cAMP assay: inhibition of GIP-activated hGIPR signaling in CHO-DHFR cells stably expressing human GIPR (IC50) [5]: 14.9 nM
B3: GIPR antibody/GLP-1 fusion protein GLP-1-Linker-L7H6 (protein, part only; not given: heavy and light constant regions, not shown: a dimerising Fc or GST)
light, part: HGEGTFTSDVSSYLEGQAAKEFIAWLVKGGGGGSGGGGSGGGGSDIVLTQSPASLAVSPGQRATITCRASQSVNTAVYSYIHWYQQKPGQPPKLLIKYASNLESGVPARFSGSGSGTDFTLTINPVEANDAANYYCQHSFDFPYTFGGGTKVEIKR
heavy, part: QVQLQESGPGLVKPSQTLSLTCTVSGYSITSDYAWNWIRQPPGKGVEWMGYISYRGIATYKPSLKSRITISRDTSKNQFSLKLSSVTAADTAVYYCVRGEYGPGNFDFWGQGTTVTVSS

direct cAMP assay: inhibition of GIP-activated hGIPR signaling in CHO-DHFR cells stably expressing human GIPR (IC50) [4]: 7.6 nM
B4: hGIPR antibody L7H6 (antibody, V domains shown)
VH: B3 heavy, part
VL: DIVLTQSPASLAVSPGQRATITCRASQSVNTAVYSYIHWYQQKPGQPPKLLIKYASNLESGVPARFSGSGSGTDFTLTINPVEANDAANYYCQHSFDFPYTFGGGTKVEIKR
